Results from US12359192B2, “Methods and compositions for display of macrocyclic peptides” (University of Rochester, priority 2013, dated 2025).
Numbered stars: 1 amine (or outer) side, 2 acyl side, 3 side chain; on linkers, the order of the positions; unused ones are H or OH. Bridge positions count the residues as written; N and C are the ends. Peptide text beside a SMILES is read from it. * marks the point of attachment. CH2CH2 = C(C[*:2])[*:1]; Propargyl = C#CC*

How the values were obtained:
streptavidin [1] = biological target: T1, streptavidin (Streptomyces avidinii, UniProt P22629); experiment: in-solution inhibition (competitive binding) assay for streptavidin binding affinity; settings: versus cyclo[S(OpgY)[…]]
T1 construct: purchased Sigma-Aldrich
Procedure: Then, a fixed amount of streptavidin-horseradish peroxidase conjugate is added to the plate in the presence of varying amount of the bicyclic or cyclic peptide.

Keap1 Kelch domain (KKD) = biological target: T2, Keap1 Kelch domain (KKD) (Homo sapiens, UniProt Q14145); experiment: direct binding assay with plate-immobilized Keap1 Kelch domain (KKD) and HRP-conjugated anti-FLAG antibody; settings: linear version, O2beY substituted with OpgY
T2 construct: poly-His tag with TEV protease cleavable linker (N)
Excerpt: FIG. 46A-FIG. 46C depict the selection of macrocyclic peptide inhibitors of the Keap1/Nrf2 interaction using methods disclosed herein. […] KD values correspond to the FLAG-tagged CBD-fused peptide macrocycles. FIG. 46B depicts binding curves for selected macrocyclic peptides as determined using a direct binding assay with plate-immobilized KKD and HRP-conjugated anti-FLAG antibody for detection of the bound peptide.
FIG. 47A-FIG. 47B depicts the selection of Keap1 binding macrocyclic peptides from a naïve macrocyclic peptide phage display library. […] FIG. 47B depicts the binding curves binding curves for selected macrocyclic peptides as determined using a direct binding assay with plate-immobilized KKD and HRP-conjugated anti-FLAG antibody for detection of the bound peptide.
The macrocyclic peptide phage display system of FIG. 43 was further applied to discover macrocyclic peptides capable of targeting a biomedically relevant protein-protein interaction such as the interaction between the Kelch-like ECH-associated protein 1 (Keap1) and transcriptional regulator Nrf2. […] The purified FLAG-tagged cyclic peptides were then tested for their ability to bind the Keap1 Kelch domain (KKD) using an in vitro assay, in which peptide binding to plate-immobilized KKD is detected using a HRP-conjugated anti-FLAG antibody (FIG. 46B). […]

Keap1 Kelch Domain (KDD) = biological target: T3, Keap1 Kelch Domain (KDD) (Homo sapiens, UniProt Q14145); experiment: KD (nM)
T3 construct: poly-His tag with TEV protease cleavable linker (N)
Excerpt: Table printed on a drawing sheet, FIG. 47A
Head of the field: KD (nM)
The patent's description of the figure: FIG. 47A-FIG. 47B depicts the selection of Keap1 binding macrocyclic peptides from a naïve macrocyclic peptide phage display library. FIG. 47A depicts the naïve library of i/i+6-linked macrocyclic peptides (X=NNK; Y*=O2beY) and the sequences and binding affinity for selected macrocyclic Keap1-binding peptides isolated after panning the macrocyclic peptide display library against immobilized Keap1 Kelch Domain (KDD). FIG. 47B depicts the binding curves binding curves for selected macrocyclic peptides as determined using a direct binding assay with plate-immobilized KKD and HRP-conjugated anti-FLAG antibody for detection of the bound peptide.
First copying reader's note: Residue columns have no printed head; a drawn thioether linker joins Y* (first residue) and C (last residue), and the KD cells hold value ± error for binding to the Keap1 Kelch Domain (KKD).
Where the first naming reader finds the target: description_of_the_figure: isolated after panning the macrocyclic peptide display library against immobilized Keap1 Kelch Domain (KDD)

streptavidin [2] = biological target: T1, streptavidin; experiment: direct binding assay with plate-immobilized streptavidin and HRP-conjugated anti-FLAG antibody; settings: CBD alone (tag control)
Excerpt: FIG. 45A-FIG. 45C depict the affinity selection of streptavidin binding peptide macrocycles using methods disclosed herein. […] KD values correspond to the corresponding FLAG-macrocycle-CBD constructs in purified form. FIG. 45B depicts binding curves for selected peptide macrocycle hits as determined using a direct binding assay with plate-immobilized streptavidin and HRP-conjugated anti-FLAG antibody for detection of the bound peptide. […] FIG. 45D depicts phage enrichment over the four rounds of affinity selection and amplification as determined via the phage titer assay.
Studies were performed to assess the functionality of the phage display-based strategy for functional selection of thioether-linked macrocyclic peptides (FIG. 43) that can bind to a target protein. […] To this end, three peptide sequences from the ‘-GD’ family and two from the ‘-FD’ family, respectively, were subcloned into a pET22 vector for expression of the corresponding macrocyclic peptides fused to a N-terminal FLAG tag and a C-terminal chitin binding domain (CBD) and poly-histidine tag to facilitate purification and quantification. […]
Binding Assays. […] Equilibrium dissociation constants (KD) were determined by fitting the dose-response curves to a 1:1 binding isotherm equation via nonlinear regression using SigmaPlot. Mean values and standard deviations were calculated from experiments performed in triplicate.

T1 sequence (P22629 25-183, species assumed): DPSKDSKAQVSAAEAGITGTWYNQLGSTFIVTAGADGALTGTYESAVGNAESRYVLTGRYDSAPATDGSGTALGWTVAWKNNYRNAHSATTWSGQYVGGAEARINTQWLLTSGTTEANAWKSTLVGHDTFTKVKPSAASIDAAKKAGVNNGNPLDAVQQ
T2 sequence (Q14145 321-609 limits assumed): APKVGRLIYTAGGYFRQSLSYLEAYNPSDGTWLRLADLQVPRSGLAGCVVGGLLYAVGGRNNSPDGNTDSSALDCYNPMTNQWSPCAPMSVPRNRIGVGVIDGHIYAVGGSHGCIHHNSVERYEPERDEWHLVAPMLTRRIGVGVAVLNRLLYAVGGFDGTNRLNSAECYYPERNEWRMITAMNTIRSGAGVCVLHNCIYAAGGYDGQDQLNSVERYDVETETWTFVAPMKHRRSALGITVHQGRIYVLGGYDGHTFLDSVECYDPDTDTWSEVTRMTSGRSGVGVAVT

CC(C)[C@@H]1NC(=O)[C@H](CC(N)=O)NC(=O)[C@H]([C@@H](C)O)NC(=O)[C@@H]2Cc3ccc(cc3)OCCSC[C@H](NC(=O)[C@H](Cc3ccccc3)NC(=O)[C@H](CCC(N)=O)NC(=O)[C@@H]3CCCN3C(=O)[C@H](Cc3c[nH]cn3)NC1=O)C(=O)N[C@@H](CC(N)=O)C(=O)N[C@@H](C)C(=O)N[C@@H](CS)C(=O)N2 [cStrep3(C)—Z8C(p-2beF)] (cyclo(ACYTNVHPQFCN); linker 3-11 via CH2CH2)
increase in streptavidin binding affinity as compared to the monocyclic counterpart (streptavidin [1]): > 2 fold

C#CCOc1ccc(C[C@H](N)C(=O)N[C@@H](CC(=O)O)C(=O)N[C@@H](CO)C(=O)N[C@@H](CCC(=O)O)C(=O)N[C@H](C(=O)NCC(=O)N[C@@H](CCC(=O)O)C(=O)N[C@@H](CS)C(=O)O)[C@@H](C)O)cc1 [linear version of KKD-m1] (H-Y(Propargyl)DSETGEC-OH; N-terminus and C-terminus assumed)
lower affinity for Keap1 relative to KKD-m1 (Keap1 Kelch domain (KKD)): five-fold lower affinity

Y* D A E T G E C (YDAETGEC; not fully specified; modified tyrosine Y*; KKD(6X)-m2) [SEQ ID NO: 251 | KKD(6X)-m2]
Kd (Keap1 Kelch Domain (KDD)): 40 ± 13 nM

Y* D I E T G E C (YDIETGEC; not fully specified; modified tyrosine Y*; KKD(6X)-m1) [SEQ ID NO: 250 | KKD(6X)-m1]
Kd (Keap1 Kelch Domain (KDD)): 43 ± 14 nM

B1: CBD: chitin binding domain tag alone (protein)
chain: MKIEEGKLTNPGVSAWQVNTAYTAGQLVTYNGKTYKCLQPHTSLAGWEPSNVPALWQLQNNGNNGLELRHG
binding to streptavidin (streptavidin [2]): no detectable binding
